Results on four molecules are retold here after US20090060908A1 (Bristol-Myers Squibb, published 2009).

Assay [1] has as its target T1, prostate specific membrane antigen (PSMA) on LNCaP cells (human, UniProt Q04609 1-750). As to the kind of experiment: cell-based or functional assay.
For assay [2], the target named is T1, prostate specific membrane antigen …. As to the kind of experiment: cell-based or functional assay. This is another data set of the same source.

T1 sequence (Q04609 whole entry): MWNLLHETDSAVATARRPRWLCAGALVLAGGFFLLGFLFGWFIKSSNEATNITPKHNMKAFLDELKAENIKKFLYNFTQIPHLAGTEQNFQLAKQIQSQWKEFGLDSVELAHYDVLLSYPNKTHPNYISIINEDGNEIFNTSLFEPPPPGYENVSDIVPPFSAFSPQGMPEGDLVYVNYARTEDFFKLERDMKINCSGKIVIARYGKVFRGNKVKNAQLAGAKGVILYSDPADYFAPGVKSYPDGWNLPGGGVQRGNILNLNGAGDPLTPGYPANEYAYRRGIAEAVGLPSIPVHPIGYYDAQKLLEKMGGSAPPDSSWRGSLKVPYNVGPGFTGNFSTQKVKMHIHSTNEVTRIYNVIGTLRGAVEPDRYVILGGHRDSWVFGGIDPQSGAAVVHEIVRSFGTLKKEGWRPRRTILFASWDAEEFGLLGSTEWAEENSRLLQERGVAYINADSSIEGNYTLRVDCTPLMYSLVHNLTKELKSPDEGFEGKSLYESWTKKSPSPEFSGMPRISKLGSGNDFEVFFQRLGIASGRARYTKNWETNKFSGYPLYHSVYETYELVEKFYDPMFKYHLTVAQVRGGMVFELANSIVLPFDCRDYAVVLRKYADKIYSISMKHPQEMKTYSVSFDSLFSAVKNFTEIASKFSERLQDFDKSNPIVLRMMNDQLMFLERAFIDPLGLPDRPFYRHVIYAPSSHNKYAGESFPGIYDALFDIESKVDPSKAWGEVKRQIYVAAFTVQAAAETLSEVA

B1: anti-PSMA human monoclonal antibody 7F12 expressed in eggs of chimeric chickens (lacks fucose residues) (antibody, IgG1, V domains shown)
VH: AVQLVQSGAEVKKPGESLKISCKGSGYSFTSFWIGWARQMPGKGLEWMGIIYPGDSDTRYSPSFQGQVTISADKSISTAYLQWSSLKASDTAMYYCATANSSFWNFDLWGRGTLVTVSS
VL: EIVLTQSPATLSLSPGERATLSCRASQSVSSYLAWYQQKPGQAPRLLIYDASNRATGIPARFSGSGSGTDFTLTISSLEPEDFAVYYCQQRSNWLMYTFGQGTKLEIK
modifications: N-linked Fc glycans without fucosyl residues (high-mannose, complex and hybrid type)
On to B1, for which, in assay [1], the “ADCC % lysis at 1 µg/ml antibody, no anti-CD16 antibody” value (“ADCC % lysis … no anti-CD16 antibody” for short) is around 38%; the “ADCC EC50, 51Cr release, LNCaP-C42b targets, IL-2 stimulated effector cells” value came to 0.018 µg/mL; the “ADCC EC50 fold difference against CHO-expressed 7F12” value was around 6 fold lower; the “EC50 for antibody internalization (Hum-Zap saporin conjugate, LNCaP cell viability)” value came out at 0.49 nM.

B2: anti-PSMA human monoclonal antibody 7F12 expressed in CHO cells (fucosylated) (antibody, human IgG1, V domains shown)
VH: AVQLVQSGAEVKKPGESLKISCKGSGYSFTSFWIGWARQMPGKGLEWMGIIYPGDSDTRYSPSFQGQVTISADKSISTAYLQWSSLKASDTAMYYCATANSSFWNFDLWGRGTLVTVSS
VL: EIVLTQSPATLSLSPGERATLSCRASQSVSSYLAWYQQKPGQAPRLLIYDASNRATGIPARFSGSGSGTDFTLTISSLEPEDFAVYYCQQRSNWLMYTFGQGTKLEIK
modifications: N-linked Fc glycans containing fucosyl residues
For the molecule B2, in assay [1], the “ADCC % lysis … no anti-CD16 antibody” value is around 15%; the “ADCC EC50, 51Cr release, LNCaP-C42b targets, IL-2 stimulated effector cells” value is 0.11 µg/mL; the “EC50 for antibody internalization (Hum-Zap saporin conjugate, LNCaP cell viability)” value was found to be 0.49 nM.

B3: anti-PSMA fully human monoclonal antibody 2A10 expressed in CHO DG44 cells (fucosylated) (antibody, V domains shown)
VH: EVQLVQSGAEVKKPGESLKISCKGSGYSFTSNWIGWVRQMPGKGLEWMGIIYPGDSDTRYSPSFQGQVTISADKSISTAYLQWSSLKASDTAMYYCARQTGFLWSSDLWGRGTLVTVSS
VL: AIQLTQSPSSLSASVGDRVTITCRASQDISSALAWYQQKPGKAPKLLIYDASSLESGVPSRFSGYGSGTDFTLTINSLQPEDFATYYCQQFNSYPLTFGGGTKVEIK
modifications: N-linked glycans containing fucose
Consider B3, for which the “ADCC % lysis … no anti-CD16 antibody” value in assay [1] is around 12%. In addition, in assay [2], the “ADCC EC50 (µg/ml) Fucosylated, Expt. #1 (IL-2 stimulated effector cells, LNCaP-C42b targets)” value was 0.08 µg/mL; the “ADCC EC50 (µg/ml) Fucosylated, Expt. #2 (IL-2 stimulated effector cells, LNCaP-C42b targets)” value came out at 0.026 µg/mL; the “ADCC EC50 (µg/ml) Fucosylated, Expt. #3 (fresh human peripheral blood effector cells, LNCaP-C42b targets)” value was determined as 0.036 µg/mL.

B4: anti-PSMA fully human monoclonal antibody 2A10 expressed in FUT8-/- Ms704 cells (defucosylated) (antibody, IgG1, V domains shown)
VH: EVQLVQSGAEVKKPGESLKISCKGSGYSFTSNWIGWVRQMPGKGLEWMGIIYPGDSDTRYSPSFQGQVTISADKSISTAYLQWSSLKASDTAMYYCARQTGFLWSSDLWGRGTLVTVSS
VL: AIQLTQSPSSLSASVGDRVTITCRASQDISSALAWYQQKPGKAPKLLIYDASSLESGVPSRFSGYGSGTDFTLTINSLQPEDFATYYCQQFNSYPLTFGGGTKVEIK
modifications: N-linked glycans without fucose residues
On to B4, for which, in assay [1], the “ADCC % lysis … no anti-CD16 antibody” value was around 37%. In addition, in assay [2], the “ADCC EC50 (µg/ml) Defucosylated, Expt. #1 (IL-2 stimulated effector cells, LNCaP-C42b targets)” value was found to be 0.007 µg/mL; the “ADCC EC50 (µg/ml) Defucosylated, Expt. #2 (IL-2 stimulated effector cells, LNCaP-C42b targets)” value came out at 0.009 µg/mL; the “ADCC EC50 (µg/ml) Defucosylated, Expt. #3 (fresh human peripheral blood effector cells, LNCaP-C42b targets)” value came out at 0.002 µg/mL; the “ADCC EC50 Ratio (fucosylated to defucosylated 2A10), Expt. #1” value is 11.4 ratio. In addition, in assay [2], the “ADCC EC50 Ratio (fucosylated to defucosylated 2A10), Expt. #2” value came out at 2.9 ratio and the “ADCC EC50 Ratio (fucosylated to defucosylated 2A10), Expt. #3” value turned out to be 18 ratio.
